Laboratory results: PMC4412574, “On-Off Kinetics of Engagement of FNI Modules of Soluble Fibronectin by β-Strand Addition” (PLoS ONE, 2015)
Peptide text beside a SMILES is read from it.

Assays:
[1] = molecular target: T1, plasma FN (Homo sapiens, UniProt P02751); assay: Size exclusion chromatography of FN-AFpolypeptide complex; assay type: binding; conditions: from half-life lower limit by Eq 4, read-out: k off estimated from size exclusion chromatography
Protocol: (§1) Fractions of 0.5 ml were collected and assayed. FN was monitored by absorbance at 280 nm by NanoDrop 2000 UV-Vis Spectrophotometer (Thermo Scientific, Wilmington, DE) and AFpolypeptide by Tecan Genios Pro microplate reader with excitation 485 nm and emission 535 nm. FN, AFFUD or AFBbk32 was analyzed by itself as a control. The k off of FN-AFFUD complex was estimated by estimating the lower limit of half-life (t1/2) of complex decay and the following equation: t1/2 = 0.693/koff (4)
(§2) To corroborate the estimates from stopped-flow fluorimetry of k off for the FN-FUD or FN-Bbk32 interaction by a second method, size exclusion chromatography of the FN-AFFUD or FN-AFBbk32 complex was carried out. […] Elution patterns of FN alone (Fig 6C), AFFUD alone (Fig 6D), and AFBbk32 alone (Fig 6E) are also shown. FN eluted at 20 min. We estimate, therefore, that the half-life of FN-AFFUD is longer than 20 min and, according to Eq, the k off of FN-AFFUD is < 10^-3 s^-1, which is more than 20-fold slower than that estimated for FN-AFBbk32 by Eq or the displacement experiment (Table 1).
Fig 6 FPLC size exclusion of FN-AFFUD or FN-AFBbk32 complex. […] Absorbance at 280nm (A^280nm), and emission at 535 nm upon excitation at 485 nm (E^535nm) were measured to estimate, respectively, concentration of FN and AFpolypeptide and expressed relative to the values in starting material. […]

[2] = molecular target: T2, FN70K fragment (Homo sapiens, UniProt P02751); assay: Size exclusion chromatography of FN70K-AFpolypeptide complex; assay type: binding; conditions: data not shown, read-out: k off estimated from size exclusion chromatography
T2 construct: the FN70K domain comprising the N-terminal ^1-9FNI and ^1-2FNII modules of FN; from tissue; host or cells: proteolytic fragment of FN
T2 sequence (P02751 32-609 limits assumed): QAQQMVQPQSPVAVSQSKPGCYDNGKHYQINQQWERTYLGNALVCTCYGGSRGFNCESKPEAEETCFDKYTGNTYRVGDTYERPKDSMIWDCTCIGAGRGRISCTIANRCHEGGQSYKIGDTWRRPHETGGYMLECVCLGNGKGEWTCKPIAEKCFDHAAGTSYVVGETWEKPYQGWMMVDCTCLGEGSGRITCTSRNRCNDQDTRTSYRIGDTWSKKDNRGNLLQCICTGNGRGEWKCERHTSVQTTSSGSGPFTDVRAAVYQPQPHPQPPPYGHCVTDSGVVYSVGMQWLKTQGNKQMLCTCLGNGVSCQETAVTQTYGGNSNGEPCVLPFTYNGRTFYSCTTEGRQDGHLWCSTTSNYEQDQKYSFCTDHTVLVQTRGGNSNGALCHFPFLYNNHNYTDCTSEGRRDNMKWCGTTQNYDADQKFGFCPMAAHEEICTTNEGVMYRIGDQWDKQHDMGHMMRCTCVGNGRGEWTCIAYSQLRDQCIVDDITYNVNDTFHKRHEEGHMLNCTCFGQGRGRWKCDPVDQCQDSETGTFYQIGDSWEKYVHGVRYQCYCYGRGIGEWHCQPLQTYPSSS
Protocol: as §1, §2

[3] = molecular target: T1, plasma FN; assay: Stopped-flow fluorimetry (crossed polarizers), direct binding of AFpolypeptide to a series of FN concentrations; conditions: as restated in text from Table 1; read-out: k on of FN-AFpolypeptide interaction
Protocol: (§3) Measurements were in TBS with 100mM NaCl at 25°C. Reactants separated in two syringes were injected by SFA-20 rapid kinetics accessory (Hi-Tech Scientific, Salisbury, England) into the cuvette for mixing in QuantaMaster 300 spectrofluorimeter (Photon Technology International, Edison, New Jersey) with excitation and emission polarizers of 90 degree. The excitation and emission wavelength were 485nm and 535 nm respectively. Upon mixing the fluorescence intensity were recorded at a rate of 10 points/sec during the reaction procedure. In the absence of FN or FN70K, there was no change in fluorescence polarization for any of the AFpolypeptides.
In direct binding assays, AFFUD, AFHADD, AFFRD or AFBbk32, 10 nM, was mixed with a series of FN concentrations or with FN70K at 100 nM. AFΔBbk32 was studied only with FN at 100 nM. For each experiment, four or five curves were generated, and k obs was calculated by F(t) = Fmin+(Fmax-Fmin)e^-kobst (1) where F(t) is fluorescence intensity at time point t. Fmax or Fmin is maximum or minimum fluorescence intensity, and the rate constant k is k obs. […]
Stopped-flow fluorimetry with crossed-polarizers was performed to study on-off kinetics of the FN-AFpolypeptide interactions. Upon mixing 10 nM AFFUD, AFHADD, AFFRD or AFBbk32 with increasing concentration (100, 200, 300, 400, or 500 nM) of FN, decreases of fluorescence intensity were observed (Fig 3). […]

[4] = molecular target: T1, plasma FN; assay: Stopped-flow displacement of AFpolypeptide from FN complex by unlabeled polypeptide (or size exclusion chromatography); assay type: binding; conditions: 1 μM unlabeled polypeptide, over 180 sec (Fig 3E-H)
Protocol: as §3
In displacement assays, unlabeled FUD, HADD, FRD, Bbk32, or ΔBbk32 in 10-fold molar excess of FN or FN70K was mixed with complex of AFpolypeptide and FN or FN70K. For ΔBbk32, only displacement from FN was measured. The k off value is calculated by Ft = Fmin+Fmax-Fmin1-e^-kofft (3) in which k off is the dissociation rate constant. The k on of FN70K-AFpolypeptide was determined by Eq based on [FN70K] and the k off of FN70K-AFpolypeptide obtained from Eq.
Fractions of 0.5 ml were collected and assayed. FN was monitored by absorbance at 280 nm by NanoDrop 2000 UV-Vis Spectrophotometer (Thermo Scientific, Wilmington, DE) and AFpolypeptide by Tecan Genios Pro microplate reader with excitation 485 nm and emission 535 nm. […]

[5] = molecular target: FN70K fragment (N-terminal 70-kDa region of fibronectin); assay: fluorescence polarisation; stopped-flow with crossed polarizers, direct binding at a single concentration: 10 nM AFpolypeptide mixed with 100 nM FN70K; kon from kobs and the koff of displacement (koff taken as 0 for FUD and HADD); TBS with 100 mM NaCl, 25°C
[6] = molecular target: plasma fibronectin (FN) (UniProt P02751); assay: fluorescence polarisation; stopped-flow with crossed polarizers, direct binding: 10 nM AFpolypeptide mixed with 100, 200, 300, 400 or 500 nM FN; kobs against [FN], kon from the slope, koff from the y-intercept; TBS with 100 mM NaCl, 25°C
[7] = molecular target: plasma fibronectin (FN) (UniProt P02751); assay: fluorescence polarisation; stopped-flow with crossed polarizers, displacement: 10 nM AFpolypeptide pre-mixed 30 min with 100 nM FN or FN70K, then 1 uM of the same unlabeled polypeptide; single exponential fit; TBS with 100 mM NaCl, 25°C
[8] = molecular target: FN70K fragment (N-terminal 70-kDa region of fibronectin); assay: as above
[9] = molecular target: plasma fibronectin (FN) (UniProt P02751); assay: fluorescence polarisation; KD calculated as koff/kon from the stopped-flow on-rate and the off-rate of the stopped-flow displacement
[10] = molecular target: FN70K fragment (N-terminal 70-kDa region of fibronectin); assay: as above
[11] = molecular target: plasma fibronectin (FN) (UniProt P02751); assay: fluorescence polarisation; stopped-flow with crossed polarizers, displacement: 10 nM AFpolypeptide pre-mixed 30 min with 100 nM FN or FN70K, then 1 uM of the same unlabeled polypeptide; single exponential fit; TBS with 100 mM NaCl, 25°C; remark: listed apart in the source
[12] = molecular target: plasma fibronectin (FN) (UniProt P02751); assay: SEC; 400 nM FN and 40 nM AFFUD or AFBbk32 mixed 30 min in TBS with 100 mM NaCl, Superose 6 10/300 at 0.5 ml/min; FN by A280, AFpolypeptide by fluorescence; koff from the lower limit of the half-life
[13] = molecular target: plasma fibronectin (FN) (UniProt P02751); assay: fluorescence polarisation + SEC; KD limit calculated as koff/kon from the stopped-flow on-rate and the upper limit of koff by chromatography
[14] = molecular target: FN70K fragment (N-terminal 70-kDa region of fibronectin); assay: as above
[15] = molecular target: FN70K fragment (N-terminal 70-kDa region of fibronectin); assay: SEC; data not shown: the same size exclusion experiment as for FN-AFFUD, with FN70K-AFFUD, FN-AFHADD or FN70K-AFHADD
[16] = molecular target: plasma fibronectin (FN) (UniProt P02751); assay: as above
[17] = molecular target: plasma fibronectin (FN) (UniProt P02751); assay: ELISA; competitive: FN coated on 96-well plate (50 ul, 20 nM); 0.5 nM b-FUD or b-Bbk32 mixed with unlabeled FUD or Bbk32 at 1, 10, 100 or 1000 nM, 1 h; bound biotinylated polypeptide detected with enzyme-conjugated (strept)avidin

T1 sequence (P02751 32-609): as the sequence (P02751 32-609 limits assumed) above

Molecule: C[C@H](N)C(=O)N[C@@H](Cc1ccccc1)C(=O)N[C@@H](Cc1c[nH]cn1)C(=O)N[C@@H](C)C(=O)N[C@@H](CC(=O)O)C(=O)N[C@@H](CC(=O)O)C(=O)O [AFHADD] (H-AFHADD-OH)
- koff [1]: < 0.001 s⁻¹
- koff [2]: < 0.001 s⁻¹
- kon [3]: 430000 M⁻¹ s⁻¹
- reversal of fluorescence intensity decrease on displacement [4]: less than 10%

Molecule: AFBbk32 (Bbk32 labeled with Alexa 488 on the N-terminal cysteine) (domain or fragment)
- kon [5]: 2.4e+06 M⁻¹ s⁻¹
- koff [6]: 0.036 to 0.041 s⁻¹
- kon [6]: 180000 M⁻¹ s⁻¹
- koff [7]: 0.025 s⁻¹
- koff [8]: 0.033 s⁻¹
- Kd [9]: 140 nM
- Kd [10]: 14 nM

Molecule: AFFRD (FRD labeled with Alexa 488 on the N-terminal cysteine) (domain or fragment)
- kon [5]: 4.1e+06 M⁻¹ s⁻¹
- koff [11]: 0.02 s⁻¹
- koff [6]: 0.027 to 0.039 s⁻¹
- kon [6]: 290000 M⁻¹ s⁻¹
- koff [7]: 0.021 s⁻¹
- koff [8]: 0.013 s⁻¹
- Kd [9]: 70 nM
- Kd [10]: 3.1 nM

Molecule: AFFUD (FUD labeled with Alexa 488 on the N-terminal cysteine) (domain or fragment)
- half-life of the complex [12]: > 20 min
- koff [12]: < 0.001 s⁻¹
- percent of AFFUD eluting with FN [12]: 100%
- kon [5]: 3.9e+06 M⁻¹ s⁻¹
- kon [6]: 390000 M⁻¹ s⁻¹
- percent of the fluorescence intensity decrease reversed over 180 sec by 1 uM unlabeled polypeptide [7]: < 10%
- Kd [13]: < 2.6 nM
- Kd [14]: < 0.26 nM
- koff [15]: < 0.001 s⁻¹

Molecule: AFHADD (HADD labeled with Alexa 488 on the N-terminal cysteine) (domain or fragment)
- kon [5]: 9.7e+06 M⁻¹ s⁻¹
- kon [6]: 430000 M⁻¹ s⁻¹
- percent of the fluorescence intensity decrease reversed over 180 sec by 1 uM unlabeled polypeptide [7]: < 10%
- Kd [13]: < 2.3 nM
- Kd [14]: < 0.1 nM
- koff [16]: < 0.001 s⁻¹
- koff [15]: < 0.001 s⁻¹

Molecule: Bbk32, unlabeled (version with the N-terminal cysteine) (domain or fragment)
- IC50 [17]: 30 nM
- percent of b-FUD binding to FN left at 1000 nM Bbk32 [17]: > 60%

Molecule: FUD, unlabeled (version with the N-terminal cysteine) (domain or fragment)
- IC50 [17]: 10 nM
